In US20150191730A1, “APTAMER-TARGETTED ANTIGEN DELIVERY” (ALBERT EINSTEIN COLLEGE OF MEDICINE OF YESHIVA UNIVERSITY, published 2015):

How the values were obtained:
[1] = molecular target: mouse DEC205 (mouse) (UniProt Q60767); test: cell-based or functional assay
[2] = molecular target: DEC205 (CD205, LY75), mouse, surface-expressed (Mus musculus, UniProt Q60767 Q60767:28-1723); test: flow; apparent; A20.Kb/mDEC205 cells; RPMI + 1 mg/mL ssDNA, 37 C, 15 min; one-site fit; conditions: tags: full-length, stably expressed on CHO (CHO/mDEC205) or A20.Kb/mDEC205 cells; label: Alexa Fluor 488 (5'); Mfold-predicted stem-loop with conserved UUCAUAA
Experimental: The minimized aptamer, min.2 (FIG. 3a), was chemically synthesized bearing a 3′ inverted dT for added serum stability and a 5′ thiol to facilitate subsequent chemical conjugations. When labeled with Alexa Fluor 488, this chemically synthesized aptamer performed as well as constructs produced by transcription (data not shown). Direct labeling of min.2 also allowed us to measure the apparent dissociation constant of this aptamer for cell-surface mDEC205 on A20 cells (23±6 nM; FIG. 3b). The specificity of Clone 1 and high affinity of its minimized form, min.2, constitute a promising basis for using this aptamer for targeted antigen delivery.
mDEC205 Cell Surface Binding Assay: A20.Kb cells or A20.Kb.mDEC205 cells which are engineered to express higher amounts of mDEC205 were washed with RPMI, resuspended at 1×10⁵ cells in 100 μL RPMI supplemented with 1 mg/mL ssDNA, and stored on ice while Alexa Fluor 488-conjugated min.2 and Alexa Fluor 488-conjugated cntrl.36 were prepared as described previously. After addition of refolded RNA to cells, the RNA-cell mixture was incubated for 15 minutes at 37° C., washed with and resuspended in flow cytometry buffer, and analyzed by flow cytometry. […]

Chain of DEC205 (CD205, LY75), mouse, surface-expressed (Q60767 28-1723, one chain of several): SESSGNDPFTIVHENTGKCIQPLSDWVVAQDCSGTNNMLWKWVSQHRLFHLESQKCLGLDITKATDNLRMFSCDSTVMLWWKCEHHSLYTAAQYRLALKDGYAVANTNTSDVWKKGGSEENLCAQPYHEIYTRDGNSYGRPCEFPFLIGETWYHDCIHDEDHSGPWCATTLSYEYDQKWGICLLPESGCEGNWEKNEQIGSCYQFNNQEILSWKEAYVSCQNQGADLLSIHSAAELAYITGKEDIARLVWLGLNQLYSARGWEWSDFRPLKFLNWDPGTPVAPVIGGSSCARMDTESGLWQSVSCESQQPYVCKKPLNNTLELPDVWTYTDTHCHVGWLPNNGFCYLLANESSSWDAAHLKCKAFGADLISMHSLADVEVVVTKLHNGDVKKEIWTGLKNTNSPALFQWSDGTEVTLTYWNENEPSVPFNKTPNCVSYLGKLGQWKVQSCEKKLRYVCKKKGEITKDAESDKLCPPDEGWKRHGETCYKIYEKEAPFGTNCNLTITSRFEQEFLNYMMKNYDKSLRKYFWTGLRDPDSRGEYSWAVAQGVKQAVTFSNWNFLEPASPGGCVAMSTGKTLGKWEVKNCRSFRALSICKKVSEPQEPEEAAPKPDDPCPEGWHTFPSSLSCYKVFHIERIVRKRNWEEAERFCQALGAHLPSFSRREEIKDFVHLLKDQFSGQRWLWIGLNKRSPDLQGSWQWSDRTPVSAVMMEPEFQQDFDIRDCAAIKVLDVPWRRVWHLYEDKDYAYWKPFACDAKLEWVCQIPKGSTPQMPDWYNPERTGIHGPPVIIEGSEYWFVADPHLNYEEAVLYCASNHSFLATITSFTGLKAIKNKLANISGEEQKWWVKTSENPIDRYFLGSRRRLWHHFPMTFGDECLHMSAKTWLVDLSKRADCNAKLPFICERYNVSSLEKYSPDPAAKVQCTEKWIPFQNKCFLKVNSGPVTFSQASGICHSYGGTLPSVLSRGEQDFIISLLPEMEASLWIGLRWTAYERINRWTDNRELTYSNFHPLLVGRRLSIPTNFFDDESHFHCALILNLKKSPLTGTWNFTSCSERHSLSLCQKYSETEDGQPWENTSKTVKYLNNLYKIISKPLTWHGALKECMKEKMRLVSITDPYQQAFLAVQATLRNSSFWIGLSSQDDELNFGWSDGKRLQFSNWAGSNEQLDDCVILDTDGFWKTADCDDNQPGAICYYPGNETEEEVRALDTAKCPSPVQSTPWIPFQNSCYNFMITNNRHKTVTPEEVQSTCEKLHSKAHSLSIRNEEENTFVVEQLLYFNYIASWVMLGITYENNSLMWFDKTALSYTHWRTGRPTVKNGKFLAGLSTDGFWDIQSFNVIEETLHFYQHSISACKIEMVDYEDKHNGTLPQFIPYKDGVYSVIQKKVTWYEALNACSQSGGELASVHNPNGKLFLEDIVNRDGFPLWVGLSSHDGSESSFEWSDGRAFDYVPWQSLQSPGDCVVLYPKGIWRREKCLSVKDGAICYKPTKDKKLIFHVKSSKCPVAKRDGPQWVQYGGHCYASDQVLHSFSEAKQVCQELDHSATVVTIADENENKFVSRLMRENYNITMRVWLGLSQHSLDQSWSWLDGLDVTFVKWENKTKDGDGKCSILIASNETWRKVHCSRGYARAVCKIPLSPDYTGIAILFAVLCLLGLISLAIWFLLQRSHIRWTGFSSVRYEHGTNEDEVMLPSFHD
Chain of mouse DEC205 (mouse) (Q60767 28-1723): as the sequence (Q60767 28-1723, one chain of several) above

How did the OT-I cell proliferation (CFSE dilution) after two days with antigen-treated CD11c+ splenocytes [1] turn out when “NLDC145:OVA, recombinant fusion of OVA and anti-mDEC205 antibody clone NLDC145” was run?
Its OT-I cell proliferation (CFSE dilution) after two days with antigen-treated CD11c+ splenocytes is greater than 80%.

How did the Kd [2] turn out when GGGAGGUGUGUUAGCACACGAUUCAUAAUCAGCUACCCUCCC (ssRNA, 2'-F pyrimidines; 3' idT; 5' thiol C6) [min.2] was run?
Its Kd is 23 nM.
